Results taken from PMC3546355.

molecular target: Cry1Aa toxin-binding region of BtR175 (BtR175-TBR) (Bombyx mori) (UniProt Q9XY09); assay: SPR

Going from “Cry1Aa loop 3 mutant H^439MPR^442 (from UniProt P0A366 1-1176) (ligand)” to “Cry1Aa loop 3 mutant Q^439PRG^442 (from UniProt P0A366 1-1176) (ligand)”, the koff rises from 0.00105 s⁻¹ to 0.00162 s⁻¹ (1.5-fold).

Going from “Cry1Aa loop mutant D^439TGN^442 (from UniProt P0A366 1-1176) (ligand)” to “Cry1Aa loop mutant G^435LVG^438 (from UniProt P0A366 1-1176) (ligand)”, the koff rises from 0.00162 s⁻¹ to 0.00559 s⁻¹ (3.5-fold).

“Cry1Aa loop mutant I^443VPV^446 (from UniProt P0A366 1-1176) (ligand)” and “Cry1Aa loop mutant S^435VVG^438 (from UniProt P0A366 1-1176) (ligand)” are within 1.5-fold of each other in koff: 0.00316 s⁻¹ for the first, 0.00379 s⁻¹ for the second.

Compared with “Cry1Aa loop mutant T^439LRT^442 (from UniProt P0A366 1-1176) (ligand)”, “Cry1Aa loop mutant V^443ELL^446 (from UniProt P0A366 1-1176) (ligand)” is 1.7-fold higher in koff: 0.00158 s⁻¹ for the first, 0.00272 s⁻¹ for the second.

“Cry1Aa loop mutant A^310QMA^313 (from UniProt P0A366 1-1176) (ligand)” and “Cry1Aa loop mutant D^439TGN^442 (from UniProt P0A366 1-1176) (ligand)” are within 1.5-fold of each other in Kd: 16 nM for the first, 13.5 nM for the second.

“Cry1Aa loop mutant E^439PPA^442 (from UniProt P0A366 1-1176) (ligand)” and “Cry1Aa loop mutant G^435LVG^438 (from UniProt P0A366 1-1176) (ligand)” are within 1.5-fold of each other in Kd: 11.6 nM for the first, 13.5 nM for the second.

“Cry1Aa loop mutant I^443VPV^446 (from UniProt P0A366 1-1176) (ligand)” and “Cry1Aa loop mutant L^367PRP^370 (from UniProt P0A366 1-1176) (ligand)” are within 1.5-fold of each other in Kd: 19.9 nM for the first, 13.3 nM for the second.

“Cry1Aa loop mutant P^367RRP^370 (from UniProt P0A366 1-1176) (ligand)” and “Cry1Aa loop mutant S^371APN^374 (from UniProt P0A366 1-1176) (ligand)” are within 1.5-fold of each other in Kd: 12.1 nM for the first, 13.3 nM for the second.

Compared with “Cry1Aa loop mutant S^435VVG^438 (from UniProt P0A366 1-1176) (ligand)”, “Cry1Aa loop mutant T^439LRT^442 (from UniProt P0A366 1-1176) (ligand)” is 1.9-fold lower in Kd: 19.9 nM for the first, 10.5 nM for the second. The second binds more tightly here.

Work on “Cry1Aa loop mutant V^443ELL^446 (from UniProt P0A366 1-1176) (ligand)” yielded a Kd of 20.4 nM.

“Cry1Aa loop mutant E^439PPA^442 (from UniProt P0A366 1-1176) (ligand)” and “Cry1Aa loop mutant I^443VPV^446 (from UniProt P0A366 1-1176) (ligand)” are within 1.5-fold of each other in kon: 121000 M⁻¹ s⁻¹ for the first, 158000 M⁻¹ s⁻¹ for the second.

“Cry1Aa loop mutant T^439LRT^442 (from UniProt P0A366 1-1176) (ligand)” and “Cry1Aa loop mutant V^443ELL^446 (from UniProt P0A366 1-1176) (ligand)” are within 1.5-fold of each other in kon: 151000 M⁻¹ s⁻¹ for the first, 133000 M⁻¹ s⁻¹ for the second.
